Data taken from PMC3934923.

Molecular target: LKB1 (endogenous, C2C12 myotubes) (mouse (endogenous in C2C12)) (UniProt Q9WTK7)
Conditions: scale: % of the AMPK phosphorylation obtained with AICAR

Chain of UniProt Q9WTK7 (Q9WTK7 whole entry): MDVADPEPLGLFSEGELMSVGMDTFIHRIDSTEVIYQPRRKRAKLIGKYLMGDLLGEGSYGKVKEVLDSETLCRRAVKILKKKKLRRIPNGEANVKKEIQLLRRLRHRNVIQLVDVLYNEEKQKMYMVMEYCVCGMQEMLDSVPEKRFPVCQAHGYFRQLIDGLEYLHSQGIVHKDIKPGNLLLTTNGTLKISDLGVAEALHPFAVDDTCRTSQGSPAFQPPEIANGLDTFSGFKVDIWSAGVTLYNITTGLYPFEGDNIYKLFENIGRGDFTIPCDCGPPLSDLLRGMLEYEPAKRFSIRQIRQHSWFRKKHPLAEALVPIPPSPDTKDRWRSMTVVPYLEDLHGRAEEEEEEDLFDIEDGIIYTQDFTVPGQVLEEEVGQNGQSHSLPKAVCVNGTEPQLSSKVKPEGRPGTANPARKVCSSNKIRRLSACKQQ

## Fyn (endogenous, C2C12 myotubes) (from UniProt P39688 1-537) (enzyme)
  AMPK T172 phosphorylation in C2C12 myotubes transduced with increasing concentrations of 11R-WT, immunoblot; little effect with 11R-Sca: 80
